# Biological target: Bacteriophage P23-77 small major capsid protein VP16, recombinant (bacteriophage P23-77)
# Experiment: SEC
substance,measurement,value
"Bacteriophage P23-77 small major capsid protein VP16, recombinant (natural protein)",stoichiometry N,2
